In publication PMC3637639 one finds FRET efficiency (CFP-RIC-3 to β2YFP 0.2:1), FRET efficiency (CFP-RIC-3 to β2YFP 0.5:1) and FRET efficiency (CFP-RIC-3 to α7-Venus 1:1) data, which are given here for 1 substance.

In assay [1] the target is β2YFP nAChR subunit (mouse) (UniProt Q9ERK7). The experiment in a line: FRET or BRET; sensitized acceptor emission FRET between CFP-RIC-3 (donor) and α7-Venus, β2YFP (with nonfluorescent α4) or α4YFP (with nonfluorescent β2) co-transfected in living HEK293T cells at cDNA ratios of CFP-RIC-3 to subunit of 0.2:1, 0.5:1, 1:1 or 5:1.
UniProt Q9ERK7, sequence (Q9ERK7 26-501): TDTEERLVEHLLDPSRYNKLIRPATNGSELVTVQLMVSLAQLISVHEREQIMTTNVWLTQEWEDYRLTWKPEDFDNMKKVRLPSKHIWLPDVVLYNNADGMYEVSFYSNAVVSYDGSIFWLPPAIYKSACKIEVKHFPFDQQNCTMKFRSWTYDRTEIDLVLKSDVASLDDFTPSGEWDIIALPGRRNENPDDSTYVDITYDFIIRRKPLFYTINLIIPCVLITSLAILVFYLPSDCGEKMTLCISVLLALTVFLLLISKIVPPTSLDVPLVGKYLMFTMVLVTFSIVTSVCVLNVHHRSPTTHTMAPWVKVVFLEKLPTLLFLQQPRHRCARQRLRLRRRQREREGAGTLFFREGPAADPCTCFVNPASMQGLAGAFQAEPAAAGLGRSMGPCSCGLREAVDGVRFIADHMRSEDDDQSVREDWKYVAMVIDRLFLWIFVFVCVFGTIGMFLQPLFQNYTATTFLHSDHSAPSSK
The target in assay [2] is α7-Venus nAChR subunit (mouse) (UniProt P49582). The description is as above.
UniProt P49582, sequence (P49582 23-502): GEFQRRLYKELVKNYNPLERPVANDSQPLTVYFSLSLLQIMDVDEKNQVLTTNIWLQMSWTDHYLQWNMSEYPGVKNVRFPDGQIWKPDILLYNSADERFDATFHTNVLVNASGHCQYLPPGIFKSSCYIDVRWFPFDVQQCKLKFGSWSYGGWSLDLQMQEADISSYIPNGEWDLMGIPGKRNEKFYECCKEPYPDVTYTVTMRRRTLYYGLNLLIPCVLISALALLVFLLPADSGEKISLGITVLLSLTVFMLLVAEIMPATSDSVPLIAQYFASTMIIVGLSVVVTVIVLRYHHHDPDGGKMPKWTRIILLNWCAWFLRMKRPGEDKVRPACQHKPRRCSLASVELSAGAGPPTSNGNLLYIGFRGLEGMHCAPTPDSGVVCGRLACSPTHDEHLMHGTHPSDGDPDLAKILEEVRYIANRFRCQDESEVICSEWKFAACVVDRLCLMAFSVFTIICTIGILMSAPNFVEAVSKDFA

Consider “CFP-RIC-3 (cyan fluorescent protein fused to the N terminus of RIC-3) (from UniProt Q7Z5B4 29-369) (natural protein)”, for which, in assay [1], the FRET efficiency (CFP-RIC-3 to β2YFP 0.2:1) came out at 10.8% and the FRET efficiency (CFP-RIC-3 to β2YFP 0.5:1) turned out to be 10.7%. In assay [2], the FRET efficiency (CFP-RIC-3 to α7-Venus 1:1) stood at 26%.
